{"source": "patent US20110305711A1", "about": "(Eli Lilly, published 2011)", "key": {"[1]": {"biological_target": "T1, human α-CGRP (Bachem H1470) (human, UniProt P06881 83-119)", "T1 peptide (looked up)": "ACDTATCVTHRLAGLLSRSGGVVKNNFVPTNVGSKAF", "test": "cell-based or functional assay"}, "[2]": {"biological_target": "Human CGRP (human) (UniProt P06881)", "test": "SPR, Biacore T100, 37 C, antibody captured on protein A, CGRP as analyte; n=1"}, "[3]": {"biological_target": "Human CGRP (human) (UniProt P06881)", "test": "SPR, Biacore T100, 37 C"}, "[4]": {"biological_target": "Human CGRP (human) (UniProt P06881)", "test": "SPR, Biacore T100, 37 C, antibody captured on protein A, CGRP as analyte; mean ± SD, n=4"}, "[5]": {"biological_target": "Human CGRP (human) (UniProt P06881)", "test": "SPR, Biacore T100, 37 C, antibody captured on protein A, CGRP as analyte; mean ± SD, n=3"}, "[6]": {"biological_target": "Human CGRP (human) (UniProt P06881)", "test": "SPR, Biacore T100, 37 C, antibody captured on protein A, CGRP as analyte; mean ± SD, n=2"}, "[7]": {"biological_target": "Human CGRP (human) (UniProt P06881)", "test": "SPR, Biacore T100, 37 C, antibody captured on protein A, CGRP as analyte; mean ± SD, n=6"}}, "data": [{"binder": "Antibody G1 (antibody, V domains shown) VH: EVQLVESGGGLVQPGGSLRLSCAASGFTFSNYWISWVRQAPGKGLEWVAEIRSESDASATHYAEAVKGRFTISRDNAKNSLYLQMNSLRAEDTAVYYCLAYFDYGLAIQNYWGQGTLVTVSS VL: EIVLTQSPATLSLSPGERATLSCKASKRVTTYVSWYQQKPGQAPRLLIYGASNRYLGIPARFSGSGSGTDFTLTISSLEPEDFAVYYCSQSYNYPYTFGQGTKLEIK", "values": [{"measurement": "inhibition of CGRP induced cAMP formation in SK-N-MC cells (IC50)", "setting": "[1]", "value": 5.36, "unit": "nM"}]}, {"binder": "Antibody I (antibody, human IgG4 S228P, kappa, F234A L235A, V domains shown) VH: QVQLVQSGAEVKKPGASVKVSCKASGYTFGNYWMQWVRQAPGQGLEWMGAIYEGTGDTRYIQKFAGRVTMTRDTSTSTVYMELSSLRSEDTAVYYCARLSDYVSGFSYWGQGTLVTVSS VL: DIQMTQSPSSLSASVGDRVTITCRASQDIDNYLNWYQQKPGKAPKLLIYYTSEYHSGVPSRFSGSGSGTDFTFTISSLQPEDIATYYCQQGDALPPTFGQGTKLEIKR", "values": [{"measurement": "Kd", "setting": "[2]", "value": 0.19, "unit": "nM"}, {"measurement": "Kd", "setting": "[3]", "value": "< 200000", "unit": "nM"}]}, {"binder": "Antibody IV (antibody, human IgG4 S228P, kappa, F234A L235A, V domains shown) VH: QVQLVQSGAEVKKPGASVKVSCKASGYTFGNYWMQWVRQAPGQGLEWMGAIYEGTGKTVYIQKFAGRVTMTRDTSTSTVYMELSSLRSEDTAVYYCARLSDYVSGFGYWGQGTLVTVSS VL: DIQMTQSPSSLSASVGDRVTITCRASRPIDKYLNWYQQKPGKAPKLLIYYTSEYHSGVPSRFSGSGSGTDFTFTISSLQPEDIATYYCQQGDALPPTFGQGTKLEIKR", "values": [{"measurement": "Kd", "setting": "[4]", "value": 0.024, "unit": "nM"}, {"measurement": "Kd", "setting": "[3]", "value": "< 200000", "unit": "nM"}]}, {"binder": "Antibody II (antibody, human IgG4 S228P, kappa, F234A L235A, V domains shown) VH: QVQLVQSGAEVKKPGASVKVSCKASGYTFGNYWMQWVRQAPGQGLEWMGAIYEGTGKTVYIQKFAGRVTMTRDTSTSTVYMELSSLRSEDTAVYYCARLSDYVSGFSYWGQGTLVTVSS VL: DIQMTQSPSSLSASVGDRVTITCRASQDIDNYLNWYQQKPGKAPKLLIYYTSEYHSGVPSRFSGSGSGTDFTFTISSLQPEDIATYYCQQGDALPPTFGQGTKLEIKR", "values": [{"measurement": "Kd", "setting": "[3]", "value": "< 200000", "unit": "nM"}, {"measurement": "Kd", "setting": "[5]", "value": 0.026, "unit": "nM"}]}, {"binder": "Antibody V (antibody, human IgG4 S228P, kappa, F234A L235A, V domains shown) VH: QVQLVQSGAEVKKPGSSVKVSCKASGYTFGNYWMQWVRQAPGQGLEWMGAIYEGTGKTVYIQKFAGRVTITADKSTSTAYMELSSLRSEDTAVYYCARLSDYVSGFGYWGQGTTVTVSS VL: DIQMTQSPSSLSASVGDRVTITCRASQDIDKYLNWYQQKPGKAPKLLIYYTSGYHSGVPSRFSGSGSGTDFTLTISSLQPEDFATYYCQQGDALPPTFGGGTKVEIKR", "values": [{"measurement": "Kd", "setting": "[6]", "value": 0.024, "unit": "nM"}, {"measurement": "Kd", "setting": "[3]", "value": "< 200000", "unit": "nM"}]}, {"binder": "Antibody III (antibody, human IgG4 S228P, kappa, F234A L235A, V domains shown) VH: QVQLVQSGAEVKKPGSSVKVSCKASGYTFGNYWMQWVRQAPGQGLEWMGAIYEGTGKTVYIQKFADRVTITADKSTSTAYMELSSLRSEDTAVYYCARLSDYVSGFGYWGQGTTVTVSS VL: DIQMTQSPSSLSASVGDRVTITCRASKDISKYLNWYQQKPGKAPKLLIYYTSGYHSGVPSRFSGSGSGTDFTLTISSLQPEDFATYYCQQGDALPPTFGGGTKVEIKR", "values": [{"measurement": "Kd", "setting": "[3]", "value": "< 200000", "unit": "nM"}, {"measurement": "inhibition of CGRP induced cAMP formation in SK-N-MC cells (IC50)", "setting": "[1]", "value": 0.41, "unit": "nM"}, {"measurement": "Kd", "setting": "[7]", "value": 0.031, "unit": "nM"}]}]}
